Values quoted from earlier work in article PMC2880562.

Biological target: Arginine repressor ArgR (trimer) (Escherichia coli) (UniProt P0A6D0)
Experiment: analytical ultracentrifugation

Arginine repressor ArgR (trimer) (from UniProt P0A6D0)
Kd: < 2.5 nM
